Measurements reported in patent publication US10927153 (UNIVERSITY OF SOUTH FLORIDA, dated 2021).
Positions count from the first letter of the chain named.

What was measured:
[1] = target: T1, Sal-1 DBP-II Mutant 1 (changes at residues 218 and 221-223), recombinant (Plasmodium vivax (strain Salvador I), UniProt P22290 211-525); test: ELISA on adsorbed recombinant protein
T1 chain: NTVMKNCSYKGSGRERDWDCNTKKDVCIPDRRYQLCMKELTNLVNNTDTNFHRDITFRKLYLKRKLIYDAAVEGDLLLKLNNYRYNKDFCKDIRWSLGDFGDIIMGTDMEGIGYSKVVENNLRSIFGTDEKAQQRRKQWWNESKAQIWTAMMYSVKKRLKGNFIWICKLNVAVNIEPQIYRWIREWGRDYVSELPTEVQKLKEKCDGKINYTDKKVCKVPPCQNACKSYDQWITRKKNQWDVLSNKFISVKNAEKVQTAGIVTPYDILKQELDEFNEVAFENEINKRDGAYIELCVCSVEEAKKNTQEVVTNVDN

[2] = target: T2, Sal-1 DBP-II Mutant 12 (changes at residues 479 and 480), recombinant (Plasmodium vivax (strain Salvador I), UniProt P22290 211-525); test: ELISA on adsorbed recombinant protein
T2 chain: T1 chain with S8N, G11R, S12K, G13R, K269A, Q270A

[3] = target: T3, Sal-1 DBP-II expressed on the surface of HEK293T cells (Plasmodium vivax, UniProt P22290 198-525); test: immunofluorescence on HEK293T cells, 10 ug/mL mAb
T3 construct: Expressed from the pRE4 vector on HEK293T cells; also called P. vivax Sal-1 DBP-II

[4] = target: T4, Duffy Antigen Receptor for Chemokines (DARC) on human Duffy positive erythrocytes (human, UniProt Q16570 1-336); test: COS7 cell binding assay (rosettes)
T4 construct: whole, on cells; also called DARC positive erythrocytes
T4 sequence: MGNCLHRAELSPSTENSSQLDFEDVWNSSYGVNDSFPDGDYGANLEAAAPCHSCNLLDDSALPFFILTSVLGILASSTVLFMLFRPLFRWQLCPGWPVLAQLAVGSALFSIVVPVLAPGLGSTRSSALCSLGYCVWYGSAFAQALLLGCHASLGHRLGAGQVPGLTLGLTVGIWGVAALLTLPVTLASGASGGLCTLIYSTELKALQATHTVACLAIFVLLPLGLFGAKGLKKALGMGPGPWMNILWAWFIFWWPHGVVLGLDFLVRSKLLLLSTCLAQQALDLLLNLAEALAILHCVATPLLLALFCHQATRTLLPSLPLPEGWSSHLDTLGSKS

[5] = target: T4, Duffy Antigen Receptor for Chemokines …; test: in vitro erythrocyte binding assay, blot of eluted antigen
[6] = target: T4, Duffy Antigen Receptor for Chemokines …; test: in vitro erythrocyte binding assay, eluted antigen detected by blot with mAb-3D10

B1: anti-DBPII monoclonal antibody mAb 2C6 (antibody, V domains shown)
VH: QVQLQQSDAELVKPGASVKISCKVSGYTFTDHSIHWMKQRPEQGLEWIGYIYPRDGSTEYNEKFKGKATLTTDKSSSTAYMQLNSLTSADSAVYFCARWFGYYFDYWGQGTTLTVSS
VL: NIMMTQSPSSLAVSAGEKVTMSCKSSQSVLYSSNQKNYLAWYQQKPGQSPKLLIYWASSRESGVPDRFTGSGSGTDFTLTISSVQPEDLAVYYCHQYLSSWTFGGGTKLEITR
Does B1 bind [1]?
Result: binds

Does B1 bind [2]?
Result: no binding

Does B1 bind [3]?
Result: binds

B2: DEKnull-3 expressed on the surface of COS7 cells (designed binder)
chain: TISSAIINHAFLQNTVMKNCNYKRKRRERDWDCNTKKDVCIPDRRYQLCMKELTNLTATATSAAHRDITFRKLYAARTSAYDAAVEGDLLLKLTNYRASTDACKAATWSLGDFGDIIMGTDMEGIGYSKVVATNLRSIFGTDEKAQQRRKQWTATSKAQIWTAMMAASTAASKGNAIWSCKLNVAVNIEPTIAAWIATSARATSSELPTEVQKLKEKCDGKINYTDKKVCKVPPCQNACKSYDQWITRKKNQWDVLSNKFISVKNAEKVQTAGIVTPYDILKQELDEFNEVAFENEINKRDGAYIELCVCSVEEAKKNTQEVVTNVDN
notes: also called COS7 cell surface-expressed DEKnull-3
Does B2 bind [4]?
Result: no binding

B3: DBPII Sal1 expressed on the surface of COS7 cells (ligand)
chain: TISSAIINHAFLQNTVMKNCNYKRKRRERDWDCNTKKDVCIPDRRYQLCMKELTNLVNNTDTNFHRDITFRKLYLKRKLIYDAAVEGDLLLKLNNYRYNKDFCKDIRWSLGDFGDIIMGTDMEGIGYSKVVENNLRSIFGTDEKAQQRRKQWWNESKAQIWTAMMYSVKKRLKGNFIWICKLNVAVNIEPQIYRWIREWGRDYVSELPTEVQKLKEKCDGKINYTDKKVCKVPPCQNACKSYDQWITRKKNQWDVLSNKFISVKNAEKVQTAGIVTPYDILKQELDEFNEVAFENEINKRDGAYIELCVCSVEEAKKNTQEVVTNVDN
notes: also called COS7 cell surface-expressed Sal1; wild type DBPII Sal1
Does B3 bind [4]?
Result: binds

B4: recombinant DBPII Sal1 (ligand domain, region II, of Plasmodium vivax Duffy binding protein, Sal1 allele) (ligand)
chain: B3 chain
notes: also called rDBPII Sal1; rDBPII
Does B4 bind [5]?
Result: binds

B5: recombinant DEKnull (designed binder)
chain: B3 chain with D142A, E143A, K144T, Q147A, R148T, K150S, W153T, N154S
notes: also called rDEKnull; original DEKnull
Does B5 bind [5]?
Result: binds

B6: DEKnull-4 expressed on the surface of COS7 cells (designed binder)
chain: TISSAIINHAFLQNTVMKNCNYKRKRRERDWDCNTKKDVCIPDRRYQLCMKALTNLVNNTDTNFHRDITARKAYLAAKLTADAASEGDLLLKLAATATSAATCKDIRWSLGDFGDIIMGTDMEGIGYSKVVENNLRSIFGTDEKAQQRRKQWWNESKATIWTAMMASATASAATSAATAAKLNVAVNIEPQIYRWIREWGRDYVSELPTEVQKLKEKCDGKINYTDKKVCKVPPCQNACKSYDQWITRKKNQWDVLSNKFISVKNAEKVQTAGIVTPYDILKQELDEFNEVAFENEINKRDGAYIELCVCSVEEAKKNTQEVVTNVDN
notes: also called COS7 cell surface-expressed DEKnull-4
Does B6 bind [4]?
Result: no binding

B7: recombinant DEKnull-3 (designed binder)
chain: TISSAIINHAFLQNTVMKNCNYKRKRRERDWDCNTKKDVCIPDRRYQLCMKELTNLTATATSAAHRDITFRKLYAARTSAYDAAVEGDLLLKLTNYRASTDACKAATWSLGDFGDIIMGTDMEGIGYSKVVATNLRSIFGTDEKAQQRRKQWTATSKAQIWTAMMAASTAASKGNAIWSCKLNVAVNIEPTIAAWIATSARATSSELPTEVQKLKEKCDGKINYTDKKVCKVPPCQNACKSYDQWITRKKNQWDVLSNKFISVKNAEKVQTAGIVTPYDILKQELDEFNEVAFENEINKRDGAYIELCVCSVEEAKKNTQEVVTNVDNHHHHHH
notes: also called rDEKnull-3
Does B7 bind [6]?
Result: no binding

B8: recombinant DEKnull-2 (designed binder)
chain: TISSAIINHAFLQNTVMKNCNYKRKRRERDWDCNTKKDVCIPDRRYQLCMKELTNLVNNTDTNFHADITFRKLYLKAKLIYDAAVEGDLLTKLNNYRYNKDFCKDIRWSLGDFGDIIMGTDMEGIGTSAVVENNLRSIFGTAATAQARRSQWTSESKAQIWTAMMYSVKKRLKGTFIWICKANVAVNIEPQIYRSIREWGRDYVAELPTEVTKLKEKCDGKINYADKKVCKVPPCQNACKSYDQWITRKANQWDVLSNKFTSAKNAEKAQTASIVTPYDILKQELDEFNEVAFENEINKRDGAYIELCVCSVEEAKKNTQEVVTNVDNHHHHHH
notes: Polymorphic residues of Sal1 mutated; also called rDEKnull-2
Does B8 bind [5]?
Result: binds

B9: recombinant DEKnull-4 (designed binder)
chain: TISSAIINHAFLQNTVMKNCNYKRKRRERDWDCNTKKDVCIPDRRYQLCMKALTNLVNNTDTNFHRDITARKAYLAAKLTADAASEGDLLLKLAATATSAATCKDIRWSLGDFGDIIMGTDMEGIGYSKVVENNLRSIFGTDEKAQQRRKQWWNESKATIWTAMMASATASAATSAATAAKLNVAVNIEPQIYRWIREWGRDYVSELPTEVQKLKEKCDGKINYTDKKVCKVPPCQNACKSYDQWITRKKNQWDVLSNKFISVKNAEKVQTAGIVTPYDILKQELDEFNEVAFENEINKRDGAYIELCVCSVEEAKKNTQEVVTNVDNHHHHHH
notes: Dimerization residues of Sal1 mutated; also called rDEKnull-4
Does B9 bind [6]?
Result: no binding

B10: DEKnull-2 expressed on the surface of COS7 cells (designed binder)
chain: TISSAIINHAFLQNTVMKNCNYKRKRRERDWDCNTKKDVCIPDRRYQLCMKELTNLVNNTDTNFHADITFRKLYLKAKLIYDAAVEGDLLTKLNNYRYNKDFCKDIRWSLGDFGDIIMGTDMEGIGTSAVVENNLRSIFGTAATAQARRSQWTSESKAQIWTAMMYSVKKRLKGTFIWICKANVAVNIEPQIYRSIREWGRDYVAELPTEVTKLKEKCDGKINYADKKVCKVPPCQNACKSYDQWITRKANQWDVLSNKFTSAKNAEKAQTASIVTPYDILKQELDEFNEVAFENEINKRDGAYIELCVCSVEEAKKNTQEVVTNVDN
notes: also called COS7 cell surface-expressed rDEKnull-2
Does B10 bind [4]?
Result: binds
